According to patent US20250326842A1 (BEIGENE SWITZERLAND, published 2025):
Where a chain is given by its changes, count along the chain named. Read-outs that look alike come from different tables or passages of the source.

T1: human PVRIG expressed on cells (human, UniProt Q6DKI7 41-326)
T1 construct: Jurkat cells engineered to express human PVRIG; also called hPVRIG-Jurkat; native human PVRIG
T1 sequence: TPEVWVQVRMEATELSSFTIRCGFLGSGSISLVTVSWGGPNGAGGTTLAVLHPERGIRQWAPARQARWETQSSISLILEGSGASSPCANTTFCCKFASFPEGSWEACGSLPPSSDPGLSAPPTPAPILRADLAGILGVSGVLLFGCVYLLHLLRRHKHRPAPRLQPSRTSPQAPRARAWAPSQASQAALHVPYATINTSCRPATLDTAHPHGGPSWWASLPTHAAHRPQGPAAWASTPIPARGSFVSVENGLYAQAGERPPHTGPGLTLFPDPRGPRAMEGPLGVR

T2: hPVRIG-ECD-his (human, UniProt Q6DKI7 41-171)
T2 construct: Acrobiosystems PVG-H52H4; also called hPVRIG-His; human PVRIG-His; not shown: His tag
T2 sequence: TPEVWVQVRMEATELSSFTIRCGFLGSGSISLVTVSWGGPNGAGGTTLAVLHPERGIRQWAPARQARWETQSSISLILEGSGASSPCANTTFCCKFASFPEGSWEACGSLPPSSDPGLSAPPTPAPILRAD

T3: Cyno PVRIG expressed on HEK293 cells (cynomolgus monkey)
T3 construct: also called native Cyno PVRIG
T3 chain: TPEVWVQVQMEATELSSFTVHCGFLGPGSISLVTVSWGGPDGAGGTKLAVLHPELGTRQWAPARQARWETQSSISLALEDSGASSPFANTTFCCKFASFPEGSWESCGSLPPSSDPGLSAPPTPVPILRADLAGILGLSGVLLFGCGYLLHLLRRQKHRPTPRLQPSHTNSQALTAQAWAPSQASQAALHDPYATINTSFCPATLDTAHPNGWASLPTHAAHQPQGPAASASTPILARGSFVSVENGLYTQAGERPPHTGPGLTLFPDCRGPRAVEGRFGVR

T4: human PVRIG recombinant protein (human, UniProt Q6DKI7 41-171)
T4 construct: also called human PVRIG protein; recombinant human antigen PVRIG
T4 sequence: T2 sequence

T5: human PVRL2 overexpressed on Farage cells (human, UniProt Q92692 32-538)
T5 construct: also called Farage-hPVRL2 cells; surface PVRL2
T5 sequence: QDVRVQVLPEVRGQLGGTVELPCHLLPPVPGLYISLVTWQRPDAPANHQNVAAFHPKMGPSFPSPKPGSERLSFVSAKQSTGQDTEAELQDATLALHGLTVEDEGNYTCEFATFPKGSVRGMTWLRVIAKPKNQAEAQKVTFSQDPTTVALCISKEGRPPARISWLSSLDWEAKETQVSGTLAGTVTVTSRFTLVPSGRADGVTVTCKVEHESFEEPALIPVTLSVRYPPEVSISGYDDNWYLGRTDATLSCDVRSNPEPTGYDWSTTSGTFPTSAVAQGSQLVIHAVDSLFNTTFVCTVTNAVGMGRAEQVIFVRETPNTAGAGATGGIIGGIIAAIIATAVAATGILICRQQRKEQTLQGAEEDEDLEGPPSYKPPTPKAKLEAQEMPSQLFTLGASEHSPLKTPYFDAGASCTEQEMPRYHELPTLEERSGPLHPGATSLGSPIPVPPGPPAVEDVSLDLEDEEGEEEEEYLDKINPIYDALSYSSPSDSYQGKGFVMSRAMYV

B1: BGA861 (antibody, V domains shown)
VH: EVQLVESGGGLVKPGGSLRLSCAASGFTFSSYGISWVRQAPGKGLEWVSEISSGGTYTYYPDTVTGRFTISRDNAKNTLYLQMSSLRAEDTAVYYCARGDPFGYWGQGTLVTVSS
VL: DIQMTQSPSSLSASVGDRVTITCKASQDVMTAVAWYQQKPGKAPKLLIYSTSYRFTGVPSRFSGSGSGTDFTLTISSLQPEDFATYYCQQHYSTPRTFGGGTKVEIK
notes: Humanized BGA86
B2: BGA862 (antibody, V domains shown)
VH: B1 VH with I34L
VL: B1 VL
notes: Humanized BGA86
B3: BGA86 (antibody, human IgG1, V domains shown)
VH: EVQLQESGGGSVKPGGSLQLSCAASGFTFSSYGMSWIRQSPEKKLEWVAEISSGGTYTYYPDTVTGRFTISRDNAKNTLYLEMSSLRSEDTAMYYCARGDPFGYWGQGTLVTVSA
VL: DVVMTQSHKFVSTSVGGRVSITCKASQDVMTAVAWYQQKPGQSPKLLIYSTSYRFTGVPDRFTGSGSGTDFTLTINGVQAEDLAVYSCQQHYSTPRTFGGGTKLEIK
notes: also called BGA86-WT
B4: BGA381 (antibody, V domains shown)
VH: EVQLVQSGAEVKKPGASVKVSCKASGYTFTDYWIYWVRQAPGQGLEWMGTIDTSDHKTSYNQKFRGRVTMTRDTSTSTVYMELSSLRSEDTAVYYCARDFIITVNYPVVDYWGQGTLVTVSS
VL: QIVLTQSPATLSLSPGERATLSCSAGSSVNYMHWFQQKPGQAPRLLIYSTSNLASGVPARFSGSGSGTDYTLTISSLEPEDFAVYYCQQRSSLPFTFGQGTKLEIK
notes: Humanized BGA38; also called BGA381-WT; BGA381/IgG1 WT
B5: human PVRIG-mIgG2a (Fc fusion)
chain: T2 sequence
notes: also called hPVRIG-mIgG2a; hPVRIG; not shown: mouse IgG2a Fc
B6: BGA38 (antibody, V domains shown)
VH: EVQLQESGAEHVMPGASVKMSCKAAGYTFTDYWMYWVKQRPGQGLEWIGTIDTSDHKTSYNQKFRGKATLTVDESSSTAYMQLSSLTSEDSAVYYCARDFIITVNYPVVDYWGQGTSVTVSS
VL: QNVLTQSPAIMSASPGEKVTITCSAGSSVNYMHWFQQKPGTSPKLWIYSTSNLASGVPARFSGSGSGTSYSLTISRMEAEDAATYYCQQRSSLPFTFGSGTKLEIK
notes: also called BGA38-WT

Key:
[1] = target: T1, human PVRIG expressed on cells; assay: flow cytometry on Jurkat cells expressing human PVRIG, anti-hFc-AF647 detection
Experimental: To evaluate the binding activity of anti-PVRIG antibodies to native PVRIG on living cells, Jurkat cells were engineered to express human PVRIG. […] EC50 values for dose dependent binding to human native PVRIG were determined by fitting the dose response data to the four-parameter logistic model with GraphPad Prism™.

[2] = target: T2, hPVRIG-ECD-his; assay: blocking ELISA: hPVRIG-His coated, antibody mixed with PVRL2-biotin at 1 ug/mL; % inhibition of PVRL2 binding
[3] = target: T3, Cyno PVRIG expressed on HEK293 cells; assay: flow cytometry on 293T cells expressing cyno PVRIG, anti-hFc-AF647 detection
Experimental: (§1) To evaluate the binding activity of anti-PVRIG antibodies to native Cyno PVRIG on living cells. HEK293 cells were engineered to express Cyno PVRIG. HEK293 expressing PVRIG cells were seeded in 96 well plates and were incubated with a serial dilution of anti-PVRIG antibodies. […] EC50 values for dose dependent binding to Cyno native PVRIG were determined by fitting the dose response data to the four-parameter logistic model with GraphPad Prism™.

[4] = target: T4, human PVRIG recombinant protein; assay: SPR, antibody captured via anti-human Fc, human PVRIG analyte
Description: For affinity determination, antibodies were captured by anti-human Fc antibodies, and used in the affinity determination based on surface plasmon resonance (SPR) technology.

[5] = target: T4, human PVRIG recombinant protein; assay: ELISA, chimeric antibody on recombinant human PVRIG
[6] = target: T2, hPVRIG-ECD-his; assay: competition ELISA, antibody against PVRL2 on coated human PVRIG
[7] = target: T4, human PVRIG recombinant protein; assay: SPR, antibody captured via anti-human Fc, human PVRIG analyte; remark: listed apart in the source
Experimental: Chimeric anti-PVRIG antibodies were generated in human IgG1 format and characterized for binding kinetics by surface plasmon resonance (SPR) assays using BIAcore™ T-200 (GE Life Sciences). […] Then a serial dilution of human or Cyno PVRIG protein was flowed over the chip surface and changes in surface plasmon resonance signals were analyzed to calculate the association rates (kₒₙ) and dissociation rates (koff) by using the one-to-one Langmuir binding model (BIA Evaluation Software, GE Life Sciences). The equilibrium dissociation constant (KD) was calculated as the ratio koff/kₒₙ.

[8] = target: T1, human PVRIG expressed on cells; assay: FACS on human PVRIG-expressing cells
[9] = target: T1, human PVRIG expressed on cells; assay: flow cytometry on Jurkat cells expressing human PVRIG, anti-hFc-647 detection [panel B]
Experimental: as §1, with “native” for “native Cyno”, “cells, Jurkat” for “cells. HEK293”, “human” for “Cyno”, “Jurkat cells” for “HEK293”, “PVRIG” for “PVRIG cells”, “serially diluted” for “a serial dilution of”

[10] = target: T3, Cyno PVRIG expressed on HEK293 cells; assay: flow cytometry on 293T cells expressing cyno PVRIG, anti-hFc-AF647 detection [panel A]
Experimental: as §1, with “cells transfected with Cyno” for “expressing”, “PVRIG” for “PVRIG cells”

[11] = target: T2, hPVRIG-ECD-his; assay: blocking ELISA: hPVRIG-His coated, antibody mixed with PVRL2-biotin at 1 ug/mL; % inhibition of PVRL2 binding [panel A]
[12] = target: T3, Cyno PVRIG expressed on HEK293 cells; assay: flow cytometry on HEK293 cells expressing cyno PVRIG, anti-hFc-647 detection [panel B]
Experimental: as §1, with “cells transfected with Cyno” for “expressing”, “PVRIG” for “PVRIG cells”

[13] = target: T4, human PVRIG recombinant protein; assay: SPR, antibody captured via anti-human Fc, human PVRIG analyte; remark: listed apart in the source
Description: For affinity determination, anti-PVRIG antibodies were captured by anti-human Fc antibodies, and used in the affinity assay based on surface plasmon resonance (SPR) technology.

[14] = target: T1, human PVRIG expressed on cells; assay: flow cytometry on Jurkat cells expressing human PVRIG, anti-hFc-AF647 detection [panel A]
Experimental: as §1, with “native” for “native Cyno”, “cells, Jurkat” for “cells. HEK293”, “human” for “Cyno”, “Jurkat cells” for “HEK293”, “PVRIG” for “PVRIG cells”, “serially diluted” for “a serial dilution of”

[15] = target: T5, human PVRL2 overexpressed on Farage …; assay: flow cytometry: 300 ng/ml hPVRIG-mIgG2a on Farage-hPVRL2 cells, PE anti-mouse IgG2a [panel A]

Binder | EC50 (read off the curve) [1] [µg/mL] | IC50 (read off the curve) [2] [µg/mL] | EC50 (read off the curve) [3] [µg/mL] | Kd [4] [nM] | koff [4] [s⁻¹] | kon [4] [M⁻¹ s⁻¹] | EC50 [5] [nM] | IC50 [6] [nM] | PVRIG/PVRL2 blocking Emax (% Inhibition) [6] [%] | Kd [7] [nM] | koff [7] [s⁻¹] | kon [7] [M⁻¹ s⁻¹] | EC50 [8] [nM] | binding Emax (MFI) [8] [MFI] | EC50 (read off the curve) [10] [µg/mL] | IC50 (read off the curve) [11] [µg/mL] | Kd [13] [nM] | koff [13] [s⁻¹] | kon [13] [M⁻¹ s⁻¹] | EC50 (read off the curve) [14] [µg/mL] | other results
B1 | ~0.02 | ~0.2 | ~0.04 | 0.645 | 0.000954 | 1.48e+06 |  |  |  |  |  |  |  |  |  |  |  |  |  |  | 
B2 | ~0.01 | ~0.1 | ~0.01 | 0.898 | 0.00216 | 2.41e+06 |  |  |  |  |  |  |  |  |  |  |  |  |  |  | 
B3 | ~0.02 | ~0.1 | ~0.01 | 0.304 | 0.000772 | 2.54e+06 | 0.069 | 0.885 | 97.2 | 0.161 | 0.00215 | 1.34e+07 | 0.038 | 1030 |  |  |  |  |  |  | 
B4 |  |  |  |  |  |  |  |  |  |  |  |  |  |  | ~0.06 | ~0.4 | 0.0707 | 0.000311 | 4.4e+06 | ~0.03 | EC50 (read off the curve) [9]: ~0.03 µg/mL; EC50 (read off the curve) [12]: ~0.06 µg/mL
B5 |  |  |  |  |  |  |  |  |  |  |  |  |  |  |  |  |  |  |  |  | binding result [15]: binds
B6 |  |  |  |  |  |  | 0.524 | 1.5 | 60 | 0.112 | 0.00017 | 1.52e+06 | 0.059 | 1040 | ~0.05 | ~0.6 | 0.045 | 0.000175 | 3.89e+06 | ~0.03 | 
